Data on 2 molecules can be found in article PMC9239988 (Nature Communications, 2022).

Series [1] addresses tick-borne encephalitis virus (TBEV) pr, the pr part of prM (aa 1-88) (tick-borne encephalitis virus strain Neudoerfl). As to the kind of experiment: SPR; […] ([…] to 7.8 nM), […], pH 5.5; 1:1 model; […].
The series “SEC-MALS” concerns the molecule itself. Put plainly: SEC-MALS. A general note: Size exclusion chromatography separates by hydrodynamic size, large species first.

By Kd is commonly meant a measure of binding affinity in units of concentration. A lower Kd goes with tighter binding. The molecule “tick-borne encephalitis virus (TBEV) soluble envelope protein E (sE) (from UniProt P14336 281-680) (domain or fragment)” returned a Kd in series [1] of 0.066 to 10 µM.

B1: tick-borne encephalitis virus (TBEV) soluble envelope protein E (sE) (domain or fragment)
chain: SRCTHLENRDFVTGTQGTTRVTLVLELGGCVTITAEGKPSMDVWLDAIYQENPAKTREYCLHAKLSDTKVAARCPTMGPATLAEEHQGGTVCKRDQSDRGWGNHCGLFGKGSIVACVKAACEAKKKATGHVYDANKIVYTVKVEPHTGDYVAANETHSGRKTASFTISSEKTILTMGEYGDVSLLCRVASGVDLAQTVILELDKTVEHLPTAWQVHRDWFNDLALPWKHEGAQNWNNAERLVEFGAPHAVKMDVYNLGDQTGVLLKALAGVPVAHIEGTKYHLKSGHVTCEVGLEKLKMKGLTYTMCDKTKFTWKRAPTDSGHDTVVMEVTFSGTKPCRIPVRAVAHGSPDVNVAMLITPNPTIENNGGGFIEMQLPPGDNIIYVGELSHQWFQKGSSIG
As usually defined, the stoichiometry N is a count of units in the complex or per binding partner. Regarding B1, the “stoichiometry N” value in “SEC-MALS” came to 2.
